The values below are quoted from earlier work in publication PMC3970081.

The data set has as its target KIF5B tail (Rattus norvegicus) (UniProt Q2PQA9). Kind of data set: SPR. (In SPR one partner is held on a chip, and binding of the other changes the refractive index at the surface.)

Kv3.1 T1 domain, sequence (P25122 1-129): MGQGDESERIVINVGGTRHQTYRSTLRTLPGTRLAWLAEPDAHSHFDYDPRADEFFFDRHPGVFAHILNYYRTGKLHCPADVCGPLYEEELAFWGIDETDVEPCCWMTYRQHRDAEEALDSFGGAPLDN
KIF5B tail (Rattus norvegicus), sequence (Q2PQA9 758-963): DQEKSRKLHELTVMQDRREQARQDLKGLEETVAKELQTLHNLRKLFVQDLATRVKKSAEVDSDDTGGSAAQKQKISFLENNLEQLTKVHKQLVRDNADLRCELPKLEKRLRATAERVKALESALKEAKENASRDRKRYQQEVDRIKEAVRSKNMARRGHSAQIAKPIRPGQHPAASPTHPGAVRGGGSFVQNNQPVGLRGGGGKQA

In general, Kd refers to the free concentration of one partner at which half of the binding sites on the other are occupied at equilibrium, for simple one-to-one binding. As for Kv3.1 T1 domain (from UniProt P25122), the Kd is 60 nM.
